Assay results published in paper PMC9205782, “Identifying amyloid-related diseases by mapping mutations in low-complexity protein domains to pathologies” (Nature Structural & Molecular Biology, 2022).
Substitutions are numbered along the chain they refer to. Numbers in names are those of the source.

Tests used:
[1] = biological target: the molecule itself; test: thioflavin T fluorescence on cooling (reversible aggregation, phase separation); same sample concentrations as the aggregation assay; held at 37 °C, cooled to 4 °C for 60 minutes, warmed back to 37 °C
[2] = biological target: the molecule itself; test: Western blot of tissue extracts; extracts of human liver tissue (three ASH, one HCC) on a gel, blotted with anti-cytokeratin 8 (C51)
[3] = biological target: the molecule itself; test: crystal structure; peptide microcrystals grown by hanging drop vapor diffusion; SGMGGIT: 0.1 M phosphate/citrate pH 4.2, 40% ethanol, 5% PEG 1000; SGMGCIT: 0.2 M sodium citrate, 0.1 M HEPES pH 7.5, 20% 2-propanol; GGYAGAS: 2.5 M NaCl, 100 mM sodium acetate pH 4.5, 0.2 M lithium sulfate; data at 100 K
[4] = biological target: the molecule itself; test: X-ray fiber powder diffraction of aggregates; aggregated samples centrifuged, exchanged into water, dried between capillaries; cross-beta pattern

B1: FUS_(1–214), wild type, with N-terminal mCherry (domain or fragment, human, UniProt P35637 1-214, looked up)
chain: MASNDYTQQATQSYGAYPTQPGQGYSQQSSQPYGQQSYSGYSQSTDTSGYGQSSYSSYGQSQNTGYGTQSTPQGYGSTGGYGSSQSSQSSYGQQSSYPGYGQQPAPSSTSGSYGSSSQSSSYGQPQSGSYSQQPSYGGQQQSYGQQQSYNPPQGYGQQNQYNSSSGGGGGGGGGGNYGQDQSSMSSGGGSGGGYGNQDQSGGGGSGGYGQQDRG
notes: FUS, human, residues 1-214; also called wild-type FUS; source: bacterial cultures, purified (Ni-NTA)
[1]
  binding result: binds

B2: KRT8 in human liver tissue extracts (natural protein, human (endogenous in liver tissue), UniProt P05787 1-483, looked up)
chain: MSIRVTQKSYKVSTSGPRAFSSRSYTSGPGSRISSSSFSRVGSSNFRGGLGGGYGGASGMGGITAVTVNQSLLSPLVLEVDPNIQAVRTQEKEQIKTLNNKFASFIDKVRFLEQQNKMLETKWSLLQQQKTARSNMDNMFESYINNLRRQLETLGQEKLKLEAELGNMQGLVEDFKNKYEDEINKRTEMENEFVLIKKDVDEAYMNKVELESRLEGLTDEINFLRQLYEEEIRELQSQISDTSVVLSMDNSRSLDMDSIIAEVKAQYEDIANRSRAEAESMYQIKYEELQSLAGKHGDDLRRTKTEISEMNRNISRLQAEIEGLKGQRASLEAAIADAEQRGELAIKDANAKLSELEAALQRAKQDMARQLREYQELMNVKLALDIEIATYRKLLEGEESRLESGMQNMSIHTKTTSGYAGGLSSAYGGLTSPGLSYSLGSSFGSGAGSSSFSRTSSSRAVVVKKIETRDGKLVSESSDVLPK
notes: keratin-8 (KRT8), endogenous in human liver; monomer band at 52 KDa; also called keratin-8; cytokeratin 8; source: endogenous, extracts of human liver tissue (ASH or HCC)
[2]
  stoichiometry N: 2

B3: KRT8_(52–58)-G55A segment GGYAGAS (peptide)
peptide: GGYAGAS
notes: G55A is found in people with cryptogenic liver disease; Crystallised as an anti-parallel class-6 steric zipper; also called 52GGYAGAS58; source: synthetic peptide, bought: GenScript
[3]
  binding result: binds

B4: KRT8_(1–90) Y54H with N-terminal mCherry (domain or fragment, human, UniProt P05787 1-90, looked up)
chain: MSIRVTQKSYKVSTSGPRAFSSRSYTSGPGSRISSSSFSRVGSSNFRGGLGGGHGGASGMGGITAVTVNQSLLSPLVLEVDPNIQAVRTQ
notes: keratin-8 (KRT8), human, head domain, residues 1-90, variant Y54H; Variant found in people with cryptogenic liver disease; source: bacterial cultures, purified (Ni-NTA)
[4]
  binding result: binds

B5: KRT8_(1–90) G62C with N-terminal mCherry (domain or fragment, human, UniProt P05787 1-90, looked up)
chain: B4 chain with H54Y, G62C
notes: keratin-8 (KRT8), human, head domain, residues 1-90, variant G62C; Variant found in people with cryptogenic liver disease; source: bacterial cultures, purified (Ni-NTA)
[1]
  binding result: binds

B6: KRT8_(1–90) G55A with N-terminal mCherry (domain or fragment, human, UniProt P05787 1-90, looked up)
chain: B4 chain with H54Y, G55A
notes: keratin-8 (KRT8), human, head domain, residues 1-90, variant G55A; Variant found in people with cryptogenic liver disease; source: bacterial cultures, purified (Ni-NTA)
[4]
  binding result: binds

B7: KRT8_(58–64) wild-type segment SGMGGIT (peptide)
peptide: SGMGGIT
notes: keratin-8 (KRT8), human, head domain segment, residues 58-64; Crystallised as an amyloid-like fibril of stacked identical strands (anti-parallel class-7 steric zipper) with PEG 1000 and ethanol; also called 58SGMGGIT64; source: synthetic peptide, bought: GenScript
[3]
  binding result: binds

B8: KRT8_(1–90), head domain of keratin-8, wild type, with N-terminal mCherry (domain or fragment, human)
chain: SIRVTQKSYKVSTSGPRAFSSRSYTSGPGSRISSSSFSRVGSSNFRGGLGGGYGGASGMGGITAVTVNQSLLSPLVLEVDPNIQAVRTQ
notes: keratin-8 (KRT8), human, head domain, residues 1-90 as stated; No removal of mCherry or the His tag is described; also called WT KRT8_(1-90); wild-type KRT8; source: bacterial cultures, purified (Ni-NTA)
[1]
  binding result: binds

B9: KRT8_(58–64) G62C segment SGMGCIT (peptide)
peptide: SGMGCIT
notes: G62C is found in people with cryptogenic liver disease; Crystallised as a class-2 parallel steric zipper with isopropanol; also called 58SGMGCIT64; KRT8-G62C segment; source: synthetic peptide, bought: GenScript
[3]
  binding result: binds
